This experiment addresses T1, HLA-B*44:05 (human).
T1 construct: also called peptide-receptive MHC class I molecule
Kind of experiment: UV peptide exchange, anti-b2m ELISA. In short, it runs like this: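 Peptide-receptive HLA-B*44:05 monomers after UV-induced exchange were diluted 100-fold and captured on streptavidin-coated plates for 1 h at 37 °C. Bound complexes were detected with 2 µg/ml HRP-anti-β2m (1 h, 37 °C) and TMB, read at 450 nm. β2m signal reflects peptide-stabilized complex yield.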
A general note: In an ELISA, binding on a coated surface is turned into a signal by an enzyme label.

B1: QEVGEITNL (peptide)
peptide: QEVGEITNL
B1 displayed a peptide exchange yield of 50 to 75%.

B2: AEMLGSVVGNW (peptide)
peptide: AEMLGSVVGNW
Take B2: the peptide exchange yield was in the range of 50 to 75%.

B3: SEENTGKTYF (peptide)
peptide: SEENTGKTYF
B3: the peptide exchange yield was in the range of 50 to 75%.

B4: KEVDPASNTY (peptide)
peptide: KEVDPASNTY
On to B4, for which the peptide exchange yield fell in the range of 50 to 75%.

B5: FETEQALRL (peptide)
peptide: FETEQALRL
B5 yielded a peptide exchange yield of 50 to 75%.

B6: AENIKKFLY (peptide)
peptide: AENIKKFLY
In the case of B6, the peptide exchange yield fell in the range of 50 to 75%.

B7: RELEEEFYSL (peptide)
peptide: RELEEEFYSL
Molecule B7 displayed a peptide exchange yield of 50 to 75%.

B8: AEQQQQQMY (peptide)
peptide: AEQQQQQMY
B8 came in with a peptide exchange yield of 50 to 75%.

B9: TELEPGLTY (peptide)
peptide: TELEPGLTY
B9 registered a peptide exchange yield of 50 to 75%.

B10: RETEDYSKQAL (peptide)
peptide: RETEDYSKQAL
B10 gave a peptide exchange yield of 20 to 50%.

B11: QESVHVASY (peptide)
peptide: QESVHVASY
Molecule B11 registered a peptide exchange yield above 75%.

B12: AEREQVIKL (peptide)
peptide: AEREQVIKL
On to B12, for which the peptide exchange yield was above 75%.

B13: EESFRCLPEW (peptide)
peptide: EESFRCLPEW
With B13, the peptide exchange yield was above 75%.

B14: EESFDSKFY (peptide)
peptide: EESFDSKFY
In the case of B14, the peptide exchange yield is 50 to 75%.

B15: SESKVFQLL (peptide)
peptide: SESKVFQLL
The molecule B15 displayed a peptide exchange yield of 50 to 75%.

B16: VENIFHNF (peptide)
peptide: VENIFHNF
The molecule B16 returned a peptide exchange yield of 20 to 50%.

B17: EEAGFPLAY (peptide)
peptide: EEAGFPLAY
Molecule B17 displayed a peptide exchange yield of 50 to 75%.

B18: SESALQTVI (peptide)
peptide: SESALQTVI
B18 displayed a peptide exchange yield of 50 to 75%.

B19: YEHAFNSIVW (peptide)
peptide: YEHAFNSIVW
On to B19, for which the peptide exchange yield is above 75%.

B20: TELGLFGVW (peptide)
peptide: TELGLFGVW
With B20, the peptide exchange yield is above 75%.

B21: QEVAQVASAIL (peptide)
peptide: QEVAQVASAIL
On to B21, for which the peptide exchange yield is above 75%.

B22: RENDFEPKF (peptide)
peptide: RENDFEPKF
B22 returned a peptide exchange yield of 50 to 75%.

B23: AESLFREAL (peptide)
peptide: AESLFREAL
The molecule B23 displayed a peptide exchange yield of 50 to 75%.

B24: VEVGDRTDW (peptide)
peptide: VEVGDRTDW
As for B24, the peptide exchange yield is 50 to 75%.

B25: EEHVYESIIRW (peptide)
peptide: EEHVYESIIRW
Molecule B25 yielded a peptide exchange yield of 50 to 75%.

B26: MEVDPIGHVY (peptide)
peptide: MEVDPIGHVY
Turning to B26, the peptide exchange yield lay in the range of 50 to 75%.

B27: GEPRKLLTQDW (peptide)
peptide: GEPRKLLTQDW
Regarding B27, the peptide exchange yield is 50 to 75%.

B28: AEADLSYTWDF (peptide)
peptide: AEADLSYTWDF
Consider B28, for which the peptide exchange yield was in the range of 50 to 75%.

B29: AEEGPSVPKIY (peptide)
peptide: AEEGPSVPKIY
B29 had a peptide exchange yield of 50 to 75%.

B30: AELDSKILAL (peptide)
peptide: AELDSKILAL
In turn, B30 had a peptide exchange yield of 50 to 75%.

B31: EEYAGQITL (peptide)
peptide: EEYAGQITL
Regarding B31, the peptide exchange yield was in the range of 50 to 75%.

B32: AEGYLDLDGI (peptide)
peptide: AEGYLDLDGI
Consider B32, for which the peptide exchange yield lay in the range of 20 to 50%.

B33: KEAINLLKNY (peptide)
peptide: KEAINLLKNY
B33 displayed a peptide exchange yield of 50 to 75%.

B34: MELLFLDTF (peptide)
peptide: MELLFLDTF
The molecule B34 yielded a peptide exchange yield of 20 to 50%.

B35: AEALGAAKKL (peptide)
peptide: AEALGAAKKL
B35 yielded a peptide exchange yield of 20 to 50%.

B36: GETVVLKNM (peptide)
peptide: GETVVLKNM
With B36, the peptide exchange yield is 50 to 75%.

B37: EENTGKTYF (peptide)
peptide: EENTGKTYF
As to B37, the peptide exchange yield is 50 to 75%.

B38: SELGLPKEV (peptide)
peptide: SELGLPKEV
For B38, the peptide exchange yield lay within 20 to 50%.

B39: QELLDFTNW (peptide)
peptide: QELLDFTNW
In the case of B39, the peptide exchange yield was above 75%.

B40: MEFQNTQSY (peptide)
peptide: MEFQNTQSY
In turn, B40 showed a peptide exchange yield of 50 to 75%.

B41: IEQADWPEI (peptide)
peptide: IEQADWPEI
B41 registered a peptide exchange yield of 20 to 50%.

B42: AEEKAAVTSL (peptide)
peptide: AEEKAAVTSL
The molecule B42 yielded a peptide exchange yield of 50 to 75%.

B43: AEIIRYIF (peptide)
peptide: AEIIRYIF
As to B43, the peptide exchange yield lay within 10 to 20%.

B44: TEDYSKQAL (peptide)
peptide: TEDYSKQAL
The molecule B44 displayed a peptide exchange yield of 50 to 75%.

B45: SESSSAFQF (peptide)
peptide: SESSSAFQF
In the case of B45, the peptide exchange yield lay in the range of 50 to 75%.

B46: AEDFVWAQW (peptide)
peptide: AEDFVWAQW
B46: the peptide exchange yield was above 75%.

B47: SELSLLSLY (peptide)
peptide: SELSLLSLY
Molecule B47 came in with a peptide exchange yield of 50 to 75%.

B48: QEVAQVASA (peptide)
peptide: QEVAQVASA
Molecule B48 had a peptide exchange yield of 20 to 50%.

B49: EEAQWVRKYF (peptide)
peptide: EEAQWVRKYF
On to B49, for which the peptide exchange yield fell in the range of 50 to 75%.

B50: HEDPSGSLHL (peptide)
peptide: HEDPSGSLHL
In turn, B50 came in with a peptide exchange yield of 50 to 75%.

B51: NEVDGEYRY (peptide)
peptide: NEVDGEYRY
As to B51, the peptide exchange yield lay in the range of 50 to 75%.

B52: TEENGFWYL (peptide)
peptide: TEENGFWYL
As to B52, the peptide exchange yield is above 75%.

B53: QEAKPRATW (peptide)
peptide: QEAKPRATW
In turn, B53 yielded a peptide exchange yield of 50 to 75%.

B54: RELARVVTL (peptide)
peptide: RELARVVTL
The molecule B54 returned a peptide exchange yield above 75%.

B55: EEINELNRMI (peptide)
peptide: EEINELNRMI
Regarding B55, the peptide exchange yield is 50 to 75%.

B56: SEFGAPRW (peptide)
peptide: SEFGAPRW
On to B56, for which the peptide exchange yield was 50 to 75%.

B57: TEVHSSPAQRW (peptide)
peptide: TEVHSSPAQRW
Molecule B57 returned a peptide exchange yield of 50 to 75%.

B58: IETSSEYFNF (peptide)
peptide: IETSSEYFNF
Turning to B58, the peptide exchange yield lay in the range of 50 to 75%.

B59: SETILAVGL (peptide)
peptide: SETILAVGL
B59 came in with a peptide exchange yield of 50 to 75%.

B60: SEILRVTLY (peptide)
peptide: SEILRVTLY
Regarding B60, the peptide exchange yield was in the range of 50 to 75%.

B61: REYEDGPLSL (peptide)
peptide: REYEDGPLSL
B61 registered a peptide exchange yield of 50 to 75%.

B62: DELMRKESQW (peptide)
peptide: DELMRKESQW
In turn, B62 displayed a peptide exchange yield of 50 to 75%.

B63: KEFGLDSVEL (peptide)
peptide: KEFGLDSVEL
In turn, B63 displayed a peptide exchange yield of 50 to 75%.

B64: AERDLNVTI (peptide)
peptide: AERDLNVTI
B64 displayed a peptide exchange yield of 50 to 75%.

B65: REIENGNSF (peptide)
peptide: REIENGNSF
In turn, B65 gave a peptide exchange yield of 50 to 75%.

B66: ALSPVPSHW (peptide)
peptide: ALSPVPSHW
B66 registered a peptide exchange yield of 50 to 75%.

B67: QESVHVASYYW (peptide)
peptide: QESVHVASYYW
B67 gave a peptide exchange yield above 75%.

For the origin of these results see patent US20200087363A1 (IMMATICS BIOTECHNOLOGIES, published 2020).
